Substrate: N[C@@H](CC(=O)O)C(=O)O
Assay: GLOX/HRP-coupled enzyme kinetics
Type: biochemical, Homo sapiens
Conditions: PLP

B1: GOT1 (glutamate oxaloacetate transaminase 1, aspartate aminotransferase 1) (Homo sapiens) (protein)
chain: APPSVFAEVPQAQPVLVFKLTADFREDPDPRKVNLGVGAYRTDDCHPWVLPVVKKVEQKIANDNSLNHEYLPILGLAEFRSCASRLALGDDSPALKEKRVGGVQSLGGTGALRIGADFLARWYNGTNNKNTPVYVSSPTWENHNAVFSAAGFKDIRSYRYWDAEKRGLDLQGFLNDLENAPEFSIVVLHACAHNPTGIDPTPEQWKQIASVMKHRFLFPFFDSAYQGFASGNLERDAWAIRYFVSEGFEFFCAQSFSKNFGLYNERVGNLTVVGKEPESILQVLSQMEKIVRITWSNPPAQGARIVASTLSNPELFEEWTGNVKTMADRILTMRSELRARLEALKTPGTWNHITDQIGMFSFTGLNPKQVEYLVNEKHIYLLPSGRINVSGLTTKNLDYVATSIHEAVTKIQ
Km: 4 mM

Reference: publication PMC6487875
